Consider 5 molecules from US20030224992A1, “Transcription factor modulators and uses thereof” (Praecis Pharmaceuticals Inc., priority 2002, published 2003).

Where two headings read alike, the source gives them in different places.

The target in series [1] is T1, Androgen receptor DNA binding domain (GST-ARDBD) (UniProt P10275 P10275:560-632). Put plainly: FP; competition with 1 nM FAM-ARE, 50 nM GST-ARDBD; room temperature. The settings on record: tags: GST fusion; chain copies: 2.
Series [2] deals with T1, Androgen receptor DNA binding domain …. As to the kind of experiment: FP; labelled probe, 1 nM with 50 nM GST-ARDBD. The settings on record: tags: GST fusion; chain copies: 2; label: 5'-FAM on top strand.
Series [3] has the same target. As to the kind of experiment: FP; scrambled MPS control, competition with FAM-ARE. The settings on record: tags: GST fusion; chain copies: 2.
The target is the same in series [4]. The settings on record: tags: GST fusion; chain copies: 2.
The target is the same in series [5]. Put plainly: FP; scrambled control, competition with FAM-ARE. The conditions noted are these: tags: GST fusion; chain copies: 2.

T1 sequence (P10275 560-632, one chain of several): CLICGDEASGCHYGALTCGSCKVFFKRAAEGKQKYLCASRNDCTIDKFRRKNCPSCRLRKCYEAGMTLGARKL

B1: ARE-MPS duplex (dsDNA)
DNA 1: AGTCTGGTACAGGGTGTTCTTTTTA
DNA 2: TAAAAAGAACACCCTGTACCAGACT
modifications: membrane permeable peptide Ac-…-NH2 conjugated at 5' of top strand
As to B1, in series [1], the binding result is “binds”.

B2: FAM-ARE duplex (dsDNA)
DNA 1: AGTCTGGTACAGGGTGTTCTTTTTA
DNA 2: TAAAAAGAACACCCTGTACCAGACT
On to B2, for which the binding result in series [2] was “binds”.

B3: AREsc-MPS scrambled (dsDNA)
DNA 1: AGTCTACGAGTGGGGTTCTTTTTTA
DNA 2: TAAAAAAGAACCCCACTCGTAGACT
modifications: membrane permeable peptide Ac-…-NH2 conjugate
As to B3, the binding result in series [3] is given as “no binding”.

B4: ARE duplex (dsDNA)
DNA 1: AGTCTGGTACAGGGTGTTCTTTTTA
DNA 2: TAAAAAGAACACCCTGTACCAGACT
As to B4, the binding result in series [4] is reported as “binds”.

B5: AREsc scrambled (dsDNA)
DNA 1: AGTCTACGAGTGGGGTTCTTTTTTA
DNA 2: TAAAAAAGAACCCCACTCGTAGACT
Turning to B5, in series [5], the binding result was “no binding”.
